{"source": "paper PMC3377666", "binders": {"B1": {"name": "non-tagged recombinant p12 (natural protein)", "chain": "MGRKRLITDSYPVVKRREGPAGHSKGELAPELGEEPQPRDEEEAELELLRQFDLAWQYGPCTGITRLQRWCRAKQMGLEPPPEVWQVLKTHPGDPRFQCSLWHLYPL"}}, "target": "recombinant human Pol δ core+p68 trimer (p125/p50/p68) (human) (UniProt P28340)", "sequence (P28340 whole entry, stated change not applied, chain 1 of 3)": "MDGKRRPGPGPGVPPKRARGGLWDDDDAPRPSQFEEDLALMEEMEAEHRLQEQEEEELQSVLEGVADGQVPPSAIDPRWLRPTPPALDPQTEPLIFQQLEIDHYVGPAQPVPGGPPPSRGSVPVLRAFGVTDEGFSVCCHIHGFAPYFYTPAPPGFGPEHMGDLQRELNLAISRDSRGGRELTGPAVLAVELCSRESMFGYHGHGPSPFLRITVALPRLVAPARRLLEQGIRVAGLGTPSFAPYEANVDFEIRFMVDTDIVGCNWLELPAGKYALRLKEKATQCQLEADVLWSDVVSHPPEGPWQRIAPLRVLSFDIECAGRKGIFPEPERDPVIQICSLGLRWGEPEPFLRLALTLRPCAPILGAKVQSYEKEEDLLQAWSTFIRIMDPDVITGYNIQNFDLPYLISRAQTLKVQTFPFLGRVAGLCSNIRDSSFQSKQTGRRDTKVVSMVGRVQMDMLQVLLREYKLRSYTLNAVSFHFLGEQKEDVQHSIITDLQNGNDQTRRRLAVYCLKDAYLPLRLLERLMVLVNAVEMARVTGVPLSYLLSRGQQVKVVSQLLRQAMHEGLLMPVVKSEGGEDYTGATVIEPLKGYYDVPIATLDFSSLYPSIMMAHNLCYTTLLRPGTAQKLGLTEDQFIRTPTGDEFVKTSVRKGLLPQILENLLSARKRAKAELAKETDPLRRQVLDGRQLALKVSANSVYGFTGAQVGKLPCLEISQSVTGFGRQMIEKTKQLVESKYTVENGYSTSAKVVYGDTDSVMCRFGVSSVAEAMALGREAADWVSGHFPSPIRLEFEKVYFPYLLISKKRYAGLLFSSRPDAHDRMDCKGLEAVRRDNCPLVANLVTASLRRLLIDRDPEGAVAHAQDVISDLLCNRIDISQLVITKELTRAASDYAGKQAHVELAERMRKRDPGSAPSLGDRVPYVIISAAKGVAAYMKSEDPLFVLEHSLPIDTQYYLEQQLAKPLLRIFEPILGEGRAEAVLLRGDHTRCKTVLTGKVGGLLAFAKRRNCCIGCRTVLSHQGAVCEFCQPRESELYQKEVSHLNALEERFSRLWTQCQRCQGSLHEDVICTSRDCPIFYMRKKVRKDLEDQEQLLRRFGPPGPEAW", "sequence (P49005 whole entry, stated change not applied, chain 2 of 3, further chain)": "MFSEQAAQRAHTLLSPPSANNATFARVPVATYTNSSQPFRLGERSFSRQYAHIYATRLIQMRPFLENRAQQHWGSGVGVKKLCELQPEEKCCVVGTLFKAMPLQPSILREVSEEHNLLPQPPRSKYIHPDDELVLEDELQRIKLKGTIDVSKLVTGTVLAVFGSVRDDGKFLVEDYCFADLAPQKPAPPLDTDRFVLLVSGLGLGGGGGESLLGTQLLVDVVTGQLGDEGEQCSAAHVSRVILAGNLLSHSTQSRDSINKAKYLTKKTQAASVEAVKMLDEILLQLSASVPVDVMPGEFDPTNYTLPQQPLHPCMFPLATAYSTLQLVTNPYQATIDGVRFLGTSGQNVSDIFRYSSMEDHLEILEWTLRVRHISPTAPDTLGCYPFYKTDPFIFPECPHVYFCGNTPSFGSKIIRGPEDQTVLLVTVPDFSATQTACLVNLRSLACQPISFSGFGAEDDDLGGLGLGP", "sequence (Q15054 whole entry, stated change not applied, chain 3 of 3, further chain)": "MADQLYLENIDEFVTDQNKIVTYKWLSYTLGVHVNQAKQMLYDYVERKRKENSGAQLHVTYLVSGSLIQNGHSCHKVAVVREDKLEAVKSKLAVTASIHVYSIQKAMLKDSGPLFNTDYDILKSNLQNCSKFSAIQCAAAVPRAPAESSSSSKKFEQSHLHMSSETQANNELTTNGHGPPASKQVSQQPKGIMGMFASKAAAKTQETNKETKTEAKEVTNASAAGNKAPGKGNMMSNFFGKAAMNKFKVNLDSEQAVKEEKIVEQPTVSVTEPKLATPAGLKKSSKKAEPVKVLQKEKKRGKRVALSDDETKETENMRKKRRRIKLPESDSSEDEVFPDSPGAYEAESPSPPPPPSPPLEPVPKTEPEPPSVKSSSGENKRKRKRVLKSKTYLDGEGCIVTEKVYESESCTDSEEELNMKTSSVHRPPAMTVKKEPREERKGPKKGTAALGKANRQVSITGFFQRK", "data": [{"binder": "B1", "values": [{"measurement": "restoration of Pol δ activity on poly(dA)/oligo(dT) with PCNA, core+p68 (200 fmoles) pre-incubated with 0-400 ng p12 at 4°C for 30 min, against Pol δ4", "result": 80, "unit": "%"}, {"measurement": "restoration of Pol δ activity on singly primed M13 DNA, core+p68 (50 fmoles) pre-incubated with 0-400 ng p12, against Pol δ4", "result": 96, "unit": "%"}]}]}
